# From patent US20250289873A1 (BROADWING BIO, published 2025)
# Substitutions are numbered along the chain they refer to.
# T1: Human CFHL1-Y402H-His (ATX-P-421) (human)
# T1 construct: also called human CFHL-1 (Y402H) protein
# T1 chain: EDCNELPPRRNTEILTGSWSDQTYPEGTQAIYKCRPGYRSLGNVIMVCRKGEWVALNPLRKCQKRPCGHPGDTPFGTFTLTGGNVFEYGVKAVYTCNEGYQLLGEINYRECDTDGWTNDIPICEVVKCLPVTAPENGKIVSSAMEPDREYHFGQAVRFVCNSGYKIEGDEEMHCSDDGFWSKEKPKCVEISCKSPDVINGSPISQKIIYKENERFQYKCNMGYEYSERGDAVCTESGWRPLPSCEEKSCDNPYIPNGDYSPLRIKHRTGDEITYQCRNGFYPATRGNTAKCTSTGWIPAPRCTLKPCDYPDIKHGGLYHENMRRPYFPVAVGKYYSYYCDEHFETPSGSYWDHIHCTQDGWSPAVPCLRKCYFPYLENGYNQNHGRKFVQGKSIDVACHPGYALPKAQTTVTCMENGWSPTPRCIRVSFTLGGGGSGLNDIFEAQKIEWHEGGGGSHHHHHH
# T2: human CFHL3-His (ATX-P-58) (human, UniProt Q02985 19-330)
# T2 construct: also called human CFHR3 protein; CFHR3; not shown: C-terminal His tag (and linker)
# T2 sequence (looked up): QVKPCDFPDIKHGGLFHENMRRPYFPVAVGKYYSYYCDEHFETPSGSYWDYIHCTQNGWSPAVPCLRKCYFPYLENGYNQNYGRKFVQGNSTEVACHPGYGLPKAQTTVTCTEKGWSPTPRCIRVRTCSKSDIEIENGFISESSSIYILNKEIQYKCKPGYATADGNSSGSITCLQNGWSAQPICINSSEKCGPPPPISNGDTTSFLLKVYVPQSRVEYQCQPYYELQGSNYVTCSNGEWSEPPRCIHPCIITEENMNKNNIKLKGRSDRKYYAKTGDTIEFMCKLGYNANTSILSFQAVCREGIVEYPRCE
# B1: ATX-P-595 (antibody, human IgG1, kappa, N297A, V domains shown)
# VH: QVQLQQSGPGLVKPSQTLSLTCAISGDSVSSNSAAWNWIRQSPSRGLEWLGRTYYRSKWFNDYALSVKSRITINPDTSKNQFSLHLNSVTPEDTAVYYCAREPGIVAPGPFDYWGQGTLVTVSS
# VL: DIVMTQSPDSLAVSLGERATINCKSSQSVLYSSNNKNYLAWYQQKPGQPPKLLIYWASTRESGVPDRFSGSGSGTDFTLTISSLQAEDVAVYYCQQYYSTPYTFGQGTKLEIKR
# B2: ATX-P-570 (antibody, human IgG1, kappa, N297A, V domains shown)
# VH: QVQLQESGPGLVKPSETMSLTCTVSGGSFTGYYWSWIRQPPGKGLEWIGYVHYSGGTKSNPSLKSRVTISVDTSKNQFSLKLSSVTAADTAVYYCARERYEWNSYFDYWGQGTLVTVSS
# VL: not shown
# B3: ATX-P-561 (antibody, human IgG1, kappa, N297A, V domains shown)
# VH: QVQLQQSGPGLVKPSQTLSLTCAISGDSVSSNSAAWNWIRQSPSRGLEWLGRTYYRSKWYNGYAVSMKSRITINPDTSKNQFSLQLNSVTPEDTAMYYCAREGVGATTGFDYWGQGTLVTVSS
# VL: DIQMTQSPSSLSASVGDRVTITCRASQGISSWLTWYQQKPGKAPKLLIYAASSLQGGVPSRFSGSGSGTDFTLTISSLQPEDFATYYCQQANSFPPTFGQGTKVEIKR
# B4: ATX-P-588 (antibody, human IgG1, kappa, N297A, V domains shown)
# VH: EVQLVESGGGLVQPGRSLRLSCAASGFTFEDYAMHWVRQAPGKGLEWVSGISWNSGSIGYADSVKGRFTISRDNAKKSLYLQMNSLRAEDTALYYCTKDRDDGYNYAGVFDYWGQGTLVTVSS
# VL: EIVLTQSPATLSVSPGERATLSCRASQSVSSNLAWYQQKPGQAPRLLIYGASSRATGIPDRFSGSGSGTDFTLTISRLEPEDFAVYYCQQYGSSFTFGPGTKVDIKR
# B5: ATX-P-600 (antibody, human IgG1, kappa, N297A, V domains shown)
# VH: B4 VH with E30D, A40V, K43R, N54S, S55G, A75S, K77N, D101E, A107G
# VL: EIVLTQSPGTLSLSPGERATLSCRASQNVRGSYLAWYQQKPGQAPRLLIYGASNRATDIPDRFSGSGSGTDFTLTISGLEPEDFVVYYCQQYGSSYTFGQGTKVEIKR
# B6: ATX-P-582 (antibody, human IgG1, kappa, N297A, V domains shown)
# VH: QVQLQESGPGLVKPSGTLSLTCAVSGGSISISKWWSWVRQPPGKGLEWIGEIYHTGSTNYHPSLKSRVTISVDKSKNQFYLKLNSVTAADTAVYYCARDELRLGELSPSLDIWGQGTMVTVSS
# VL: DIQMTQSPSSLSASVGDRVTITCRASQNINNYLNWFRQKPGKAPKLLIFAASSLQSGVPSRFSGSESGTDFTLTISSLQPEDFATYYCQQSYSTPLTFGGGTKVEIKR
# B7: ATX-P-594 (antibody, human IgG1, kappa, N297A, V domains shown)
# VH: QVQLQQSGPGLVKPSQTLSLTCAISGDSVSSNSASWNWIRQSPSRGLEWLGTTYYRSKWFNVYAVSVKSRITINPDTSKNQFSLHLNSVTPEDTAIYFCTRDRGDLLHWYFDLWGRGTLVTVSS
# VL: EIVLTQSPGTLSLSPGERATLSCRASQSVSSSYLAWYQQKPGQSPRLLIYGASSRATGIPDRFSGSGSGTDFTLTISRLEPEDFAVYYCQQYGRSVTFGGGTKLEIKR
# B8: ATX-P-596 (antibody, human IgG1, kappa, N297A, V domains shown)
# VH: EVQLVESGGGLVQPGRSLRLSCAASGFSFDDYAMHWVRQVPGKGLEWVSGISWTGGSVGYADPVKGRFTISRDNAKNSLYLQMNSLRPEDTALYYCAKDMGDGYSRNWPFDYWGQGTLVTVSS
# VL: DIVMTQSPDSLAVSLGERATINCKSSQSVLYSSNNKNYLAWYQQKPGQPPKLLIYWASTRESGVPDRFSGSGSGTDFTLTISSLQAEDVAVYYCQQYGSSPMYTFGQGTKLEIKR
# B9: ATX-P-571 (antibody, human IgG1, kappa, N297A, V domains shown)
# VH: QVQLQESGPGLVKPSGTLSLTCAVSGGSISSRNWWSWVRQPPGKGLEWIGEIYHGGTTNYNPSLKSRVTISVDKSKNQFSLKLSSVTAADTAVYYCARGGLRLGELSPNAFDIWGQGTMVTVSS
# VL: DIQMTQSPSSLSASVGDRVTITCRASQSISSYLNWYQQKPGKAPKVLIYAASSLQSGIPSRFSGSGSGTDFTLTISSLQPEDFATYYCQETYSVPLTFGGGTKVEIKR
# B10: ATX-P-592 (antibody, human IgG1, kappa, N297A, V domains shown)
# VH: B1 VH with F60Y, N61S, A64P, H85Q, E102D, P103S, A107E, P108T, G109T
# VL: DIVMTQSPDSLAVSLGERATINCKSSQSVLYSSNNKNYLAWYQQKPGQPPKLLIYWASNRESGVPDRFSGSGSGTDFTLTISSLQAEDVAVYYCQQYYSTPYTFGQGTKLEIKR
# B11: ATX-P-572 (antibody, human IgG1, kappa, N297A, V domains shown)
# VH: QVQLQQSGPGLVKPSQTLSLTCAISGDSVSSNSAAWNWIRQSPSRGLEWLGMTYYRSKWYSVFAVSVKSRITINTDTSKNQFSLQLNSVTPEDTAVYYCAREGGIVGATPFDYWGQGTLVTVSS
# VL: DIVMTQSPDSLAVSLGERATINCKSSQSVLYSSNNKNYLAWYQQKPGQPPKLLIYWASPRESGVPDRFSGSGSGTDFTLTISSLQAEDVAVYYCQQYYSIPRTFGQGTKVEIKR
# B12: ATX-P-610 (antibody, human IgG1, kappa, N297A, V domains shown)
# VH: B1 VH with P14S, L20I, F60Y, T72I, N74K, P75S, H85Q, V106A, T118S
# VL: B3 VL with L11V, T34A, G56S, A91N, N92Y, S93R, F94T, P96I, K103R, V104L
# B13: ATX-P-608 (antibody, human IgG1, kappa, N297A, V domains shown)
# VH: QVQLQESGPGLVKPSGTLSLTCAVSGGSISSSNWWSWVRQSPGKGLEWIGEIYHTGSTNKKPSLKSRVIISVDKSKNQFSLKLISVNAADTAIYYCARDREGGTTEAFDIWGQGTMVTVSS
# VL: EIVMTQSPATLSVSPGERATLSCRASQSVSSNLAWYQQKPGQAPRLLIYGASTRATGIPVRFSGSGSGTQFTLTISSLQSEDFAVYYCQQYDNWRTFGQGTRLEIKR
# B14: ATX-P-609 (antibody, human IgG1, kappa, N297A, V domains shown)
# VH: QVQLQESGPGLVKPSGTLSLTCAVSGGSISSSNWWSWVRQPPGKGLEWIGEIYHSGSTNYNPSLKSRVTISVDKSKNQFSLKLRSVTAADTAVYYCARDQLSSGPTDAFDIWGQGTMVTVSS
# VL: B13 VL with R102K
# B15: ATX-P-569 (antibody, human IgG1, kappa, N297A, V domains shown)
# VH: EVQLVESGGGLAQFGRSLRLSCAASGFTFDDYAMHWLRQAPGMGLEWVSGISWNSGSIGYADSVKGRFTIARDNAKNSVHLQMNSLRAEDTALYYCAKDIGNGYTKGDVFDIWGQGTMVTVSS
# VL: DIQMTQSPSTLSASVGDSVTITCRASQNIITWLAWYQQKPGKAPNLLIYKASSLESGVPSRFSGSGSGTEFTLTISSLQPDDFATYYCQQYSSYSYTFGQGTKLEIKR
# B16: ATX-P-603 (antibody, human IgG1, kappa, N297A, V domains shown)
# VH: QVQLQESGPGLVKPSGTLSLTCAVSGGSISGSHWWSWFRQPPGKGLEWIGEIYHTGSTNKNPSLKSRVTISLDKSKNQFSLRLRSVTDADTAVYYCARDQYTGSPRDAFDIWGQGTMVTVSS
# VL: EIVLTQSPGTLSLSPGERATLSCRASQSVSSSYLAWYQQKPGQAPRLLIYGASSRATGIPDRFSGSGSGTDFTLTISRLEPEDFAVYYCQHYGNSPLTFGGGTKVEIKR
# Target: T1, Human CFHL1-Y402H-His (ATX-P-421)
# Test: Carterra LSA biosensor, mAb printed on chip, human CFHL1-Y402H-His at 380 nM
# Procedure: (§1) Experiments were also conducted to determine the reactivity of the CFHR4 antibodies with the human CFHL-1 (Y402H) protein (FIG. 10). The binding experiments were performed on Carterra LSA with a running buffer of PBS pH 7.40, 1% BSA, 0.05% Tween20. Antibodies were covalently printed on an HC30M chip. Chip was activated with 33 mM s-NHS and 133 mM EDC in 100 mM MES pH 5.5 for 7 minutes. Antibodies at 10 mg/ml in acetic acid buffer pH 4.5 were used for printing for 10 min. The printed chip was then quenched with 1 M ethanolamine pH 8.5 for 7 min. For the reactivity assay, ATX-P-421, human CFHL1-Y402H-His, at 380 nM was tested with 5 min association followed by 15 min dissociation. Results were processed and analyzed in Carterra LSA Kinetics Software. The data was referenced with the interstitial reference spots and double-referenced to a buffer cycle, and then the responses (nm) after association were reported. Isotype control was used to determine the cutoff response for positive binding.
row,binding result,Binder
1,binds,B1
2,binds,B2
3,binds,B3
4,binds,B4
5,binds,B5
6,binds,B6
7,binds,B7
8,binds,B8
9,binds,B9

# Target: T2, human CFHL3-His (ATX-P-58)
# Test: Carterra LSA biosensor, mAb printed on chip, cutoff set by isotype control
# Procedure: as §1, with “CFHR3” for “CFHL-1 (Y402H)”, “9).” for “10).”, “ATX-P-58,” for “ATX-P-421,”, “CFHL3-His,” for “CFHL1-Y402H-His,”, “550” for “380”
# as §1
row,binding result,Binder
1,no binding (tested: 550 nM),B2
2,no binding (tested: 550 nM),B6
3,no binding (tested: 550 nM),B9

# Target: T1, Human CFHL1-Y402H-His (ATX-P-421)
# Test: as above
# Procedure: as §1, with “CFHR3” for “CFHL-1 (Y402H)”, “9).” for “10).”, “ATX-P-58,” for “ATX-P-421,”, “CFHL3-His,” for “CFHL1-Y402H-His,”, “550” for “380”
# as §1
row,binding result,Binder
1,no binding (tested: 380 nM),B10
2,no binding (tested: 380 nM),B11
3,no binding (tested: 380 nM),B12
4,no binding (tested: 380 nM),B13
5,no binding (tested: 380 nM),B14
6,no binding (tested: 380 nM),B15
7,no binding (tested: 380 nM),B16

# Target: T2, human CFHL3-His (ATX-P-58)
# Test: Carterra LSA biosensor, mAb printed on chip, human CFHL3-His at 550 nM
# Procedure: as §1, with “CFHR3” for “CFHL-1 (Y402H)”, “9).” for “10).”, “ATX-P-58,” for “ATX-P-421,”, “CFHL3-His,” for “CFHL1-Y402H-His,”, “550” for “380”
row,binding result,Binder
1,binds,B10
2,binds,B11
3,binds,B1
4,binds,B3
5,binds,B12
6,binds,B4
7,binds,B5
8,binds,B13
9,binds,B14
10,binds,B15
11,binds,B7
12,binds,B8
